Experiments:
Assay in all cases: purified protein
Format in all cases: biochemical, Aspergillus oryzae
purified protein [1] = substrate: O=[N+]([O-])c1ccc(O[C@H]2O[C@H](CO)[C@@H](O[C@H]3O[C@H](CO)[C@@H](O[C@H]4O[C@H](CO)[C@@H](O[C@H]5O[C@H](CO)[C@@H](O[C@H]6O[C@H](CO)[C@@H](O)[C@H](O)[C@H]6O)[C@H](O)[C@H]5O)[C@H](O)[C@H]4O)[C@H](O)[C@H]3O)[C@H](O)[C@H]2O)cc1; conditions: 50 mM sodium acetate pH 5.5, 40°C, apparent value, hydrolysis plus transglycosylation, 1.6–100 mM substrate
purified protein [2] = substrate: O=[N+]([O-])c1ccc(O[C@H]2O[C@H](CO)[C@@H](O[C@H]3O[C@H](CO)[C@@H](O[C@H]4O[C@H](CO)[C@@H](O[C@H]5O[C@H](CO)[C@@H](O[C@H]6O[C@H](CO)[C@@H](O[C@H]7O[C@H](CO)[C@@H](O[C@H]8O[C@H](CO)[C@@H](O)[C@H](O)[C@H]8O)[C@H](O)[C@H]7O)[C@H](O)[C@H]6O)[C@H](O)[C@H]5O)[C@H](O)[C@H]4O)[C@H](O)[C@H]3O)[C@H](O)[C@H]2O)cc1; conditions: 50 mM sodium acetate pH 5.5, 40°C, apparent value, hydrolysis plus transglycosylation, 1.6–50 mM substrate
purified protein [3] = substrate: O=[N+]([O-])c1ccc(O[C@H]2O[C@H](CO)[C@@H](O[C@H]3O[C@H](CO)[C@@H](O[C@H]4O[C@H](CO)[C@@H](O[C@H]5O[C@H](CO)[C@@H](O[C@H]6O[C@H](CO)[C@@H](O[C@H]7O[C@H](CO)[C@@H](O[C@H]8O[C@H](CO)[C@@H](O[C@H]9O[C@H](CO)[C@@H](O)[C@H](O)[C@H]9O)[C@H](O)[C@H]8O)[C@H](O)[C@H]7O)[C@H](O)[C@H]6O)[C@H](O)[C@H]5O)[C@H](O)[C@H]4O)[C@H](O)[C@H]3O)[C@H](O)[C@H]2O)cc1; conditions: 50 mM sodium acetate pH 5.5, 40°C, apparent value, hydrolysis plus transglycosylation, 1.6–25 mM substrate
purified protein [4] = substrate: O=[N+]([O-])c1ccc(O[C@H]2O[C@H](CO)[C@@H](O[C@H]3O[C@H](CO)[C@@H](O[C@H]4O[C@H](CO)[C@@H](O[C@H]5O[C@H](CO)[C@@H](O[C@H]6O[C@H](CO)[C@@H](O[C@H]7O[C@H](CO)[C@@H](O)[C@H](O)[C@H]7O)[C@H](O)[C@H]6O)[C@H](O)[C@H]5O)[C@H](O)[C@H]4O)[C@H](O)[C@H]3O)[C@H](O)[C@H]2O)cc1; conditions: 50 mM sodium acetate pH 5.5, 40°C, apparent value, hydrolysis plus transglycosylation, 1.6–50 mM substrate

B1: rAoAgtA (Aspergillus oryzae RIB40) (protein)
chain: ATTAEWKSRSVYQTMTDRFARTDGSTTAPCNTTQGLYCGGTWRGTIDKLDYIQGMGFDAVMISPIVENIEGRVSYGEAYHGYWPLDLYSLNSHFGTHQDLLDLSEALHSRGMYLMMDTVINNMAYMTNGKDPAKNIDYSVFTPFNDSSYFHPYCKITDWNNYTNAQLCQTGDDKVALPDLFTEHEDVQQILEKWAKEIISTYSIDGLRIDAAKHVNPGFLKNFGDAIGAFMTGEVLQQEVDTICKYQNNYIGSVPNYPIYYSVLKAFTLGNTTDLANQVEIMKNSCDDVTALASFSENHDVARFASMTDDMALAKNVLTFTILYDGVPMIYQGQEQHLDGPGTPDNREAIWLTKYNTDAELYKLIAKLNTIRKHAYKLDPNYVSLQTYPIFRGGSELGFRKGVEGRQVVMLLSTQGSNSSAYNLTLPVSFNGGVQVMDVLNCVNYTVNPQSELIVPMDKGEPRVFFPTSLMPGSGLCGYTTANVSFVELKTKGAA
notes: residues 24-518 of 549 (signal peptide 1-23 and C-terminal GPI-anchor region removed), C-terminal PGGGS linker and His6 tag; secreted from Pichia pastoris SMD1168H with alpha-factor signal
Question: For B1, which Km (purified protein [1]) is on record?
Answer: The Km was 61.8 mM.

Question: What about the Vmax (purified protein [1]) of the same protein?
Answer: The Vmax was 659 µM/min.

Question: And the kcat (purified protein [1])?
Answer: Its kcat is 60 s⁻¹.

Question: And the kcat/Km (purified protein [1])?
Answer: The kcat/Km was 970 M⁻¹ s⁻¹.

Question: What about the Km (purified protein [2]) of the same protein?
Answer: Its Km is 28.9 mM.

Question: What about the Vmax (purified protein [2]) of the same protein?
Answer: The Vmax was 402 µM/min.

Question: And the kcat (purified protein [2])?
Answer: Its kcat is 36.7 s⁻¹.

Question: What about the kcat/Km (purified protein [2]) of the same protein?
Answer: The kcat/Km was 1270 M⁻¹ s⁻¹.

Question: And the Km (purified protein [3])?
Answer: The Km was 25.1 mM.

Question: And the Vmax (purified protein [3])?
Answer: Its Vmax is 344 µM/min.

Question: What about the kcat (purified protein [3]) of the same protein?
Answer: The kcat was 31.3 s⁻¹.

Question: What about the kcat/Km (purified protein [3]) of the same protein?
Answer: The kcat/Km was 1250 M⁻¹ s⁻¹.

Question: And the Km (purified protein [4])?
Answer: Its Km is 45.6 mM.

Question: What about the Vmax (purified protein [4]) of the same protein?
Answer: The Vmax was 710 µM/min.

Question: And the kcat (purified protein [4])?
Answer: The kcat was 64.6 s⁻¹.

Question: What about the kcat/Km (purified protein [4]) of the same protein?
Answer: The kcat/Km was 1420 M⁻¹ s⁻¹.

Reference: publication PMC10512346, “Cleavage of α-1,4-glycosidic linkages by the glycosylphosphatidylinositol-anchored α-amylase AgtA decreases the molecular weight of cell wall α-1,3-glucan in Aspergillus oryzae” (Frontiers in Fungal Biology, 2023)
